The values below come from paper PMC9045774, “The prominent role of a CDR1 somatic hypermutation for convergent IGHV3-53/3-66 antibodies in binding to SARS-CoV-2” (Emerging Microbes & Infections, 2022).

The experiment has as its target T1, SARS-CoV-2 receptor-binding domain (RBD) (SARS-CoV-2, ancestral (Wuhan-Hu-1) …, UniProt P0DTC2).
T1 construct: also called SARS-CoV-2 RBD
Briefly: not stated; binding affinities of the residue-27 germline revertants of BD-236, COVOX-222 and CV30 (supplementary Fig. S5); method not named in the sentence (BLI in the experiments around it).

B1: BD-236, germline format at residue 27 (reverse mutation) (antibody, V domains shown)
VH: EVQLVESGGGLIQPGGSLRLSCAASGFTVSSNYMSWVRQAPGKGLEWVSVIYSGGSTDYADSVKGRFTISRDKSKNTLYLQMNSLRAEDTAVYYCARDLGEAGGMDVWGQGTTVTVSS
VL: AIQLTQSPSSLSASVGDRVTITCRASQGISSYLAWYQQKPGKAPKLLIYAASTLQSGVPSRFSGSGSGTDFTLTISSLQPEDFATYYCQQLNSYPPAFGGGTKVEIK
notes: as the heavy chain of m10 (PDB 7CHB) with residue 27 reverted to the germline F; as the light chain of m10
As to B1, the “fold decrease of affinity against BD-236” value came out at 1.37 fold.

B2: COVOX-222, germline format at residue 27 (reverse mutation) (antibody, V domains shown)
VH: EVQLVESGGGLIQPGGSLRLSCAASGFTVSSNYMSWVRQAPGKGLEWVSVIYSGGSTFYADSVKGRFTISRDNSKNTLYLQMNSLGAEDTAVYYCARGEGSPGNWFDPWGQGTLVTVSS
VL: DVVMTQSPGTLSLSPGERATLSCRASQSVPSSYLAWYQQKPGQAPRLLIYGASTRATGIPDRFSGSGSGTDFTLTISRLEPEDFAVYYCQHYDTSPRFGGGTKVDIK
notes: as the heavy chain of m12 (PDB 7NX6) with residue 27 reverted to the germline F; as the light chain of m12; also called germline format of COVOX-222
In the case of B2, the “fold decrease of affinity against COVOX-222” value came out at 2.02 fold.
